# From patent US20240309109A1 (MorphoSys, published 2024)
# Assays:
# human CD38 on cells = biological target: T1, human CD38 on cells (human, UniProt P28907 1-300); test: FACS Scatchard on RPMI8226 cells
# T1 construct: The cell that carried CD38 is named under assay in each row; also called CD38 on Raji, RPMI8226, OPM2, CCRF-CEM, human erythrocytes, CD38 CHO-K1 transfectants
# [1] = biological target: T2, human CD38 Fc-fusion aa 45-300 (human, UniProt P28907 45-300); test: SPR (Biacore), Fab format
# T2 construct: Expressed in HEK293 behind a human Vkappa leader, which is left out here; also called CD38-Fc fusion protein; CD38 Fc-Fusion protein
# [2] = biological target: CD38 (antigen of the Bioveris affinity determination) (Homo sapiens (Human), UniProt P28907 45-300, limits assumed); test: Bioveris, Fab format
Binder,EC50 (human CD38 on cells),Kd [1],Kd [2]
"MOR06204 Fab (Fab, V domains shown, Fab format) VH: QVQLVESGGGLVQPGGSLRLSCAASGFTFSSYAMNWVRQAPGKGLEWVSHIRKKNTSYTTEYAASVKGRFTISRDNSKNTLYLQMNSLRAEDTAVYYCAREDGSYMTDYFAYWGQGTLVTVSS VL: DIELTQPPSVSVAPGQTARISCSGDNIGHYYVSWYQQKPGQAPVLVIYSDSNRPSGIPERFSGSNSGNTATLTISGTQAEDEADYYCQSYNGTYVFGGGTKLTVL",6.36 nM,22.7 nM,0.0585 nM
"MOR06214 Fab (Fab, V domains shown, Fab format) VH: QVQLVESGGGLVQPGGSLRLSCAASGFTFSSYAMNWVRQAPGKGLEWVSNIQRVGSTYYADSVKGRFTISRDNSKNTLYLQMNSLRAEDTAVYYCAREDGSYMTDYFAYWGQGTLVTVSS VL: DIELTQPPSVSVAPGQTARISCSGDNIGHYYVSWYQQKPGQAPVLVIYSDSNRPSGIPERFSGSNSGNTATLTISGTQAEDEADYYCQSYNGTYVFGGGTKLTVL",5.32 nM,5.26 nM,0.0936 nM
"MOR06200 Fab (Fab, V domains shown, Fab format) VH: QVQLVESGGGLVQPGGSLRLSCAASGFTFSSYYMNWVRQAPGKGLEWVSAISNNGNVTYYADSVKGRFTISRDNSKNTLYLQMNSLRAEDTAVYYCARDLPLVYTGFAYWGQGTLVTVSS VL: DIELTQPPSVSVAPGQTARISCSGDNLRHYYVYWYQQKPGQAPVLVIYGDSKRPSGIPERFSGSNSGNTATLTISGTQAEDEADYYCQTYTGGASLVFGGGTKLTVL",5.02 nM,7.92 nM,0.0599 nM
"MOR06192 Fab (Fab, V domains shown, Fab format) VH: QVQLVESGGGLVQPGGSLRLSCAASGFTFSSYYMNWVRQAPGKGLEWVSVISPGGEAKSYADSVKGRFTISRDNSKNTLYLQMNSLRAEDTAVYYCARDLPLVYTGFAYWGQGTLVTVSS VL: DIELTQPPSVSVAPGQTARISCSGDNLRHYYVYWYQQKPGQAPVLVIYGDSKRPSGIPERFSGSNSGNTATLTISGTQAEDEADYYCQTYTGGASLVFGGGTKLTVL",7.07 nM,5.01 nM,0.0747 nM
"MOR06188 Fab (Fab, V domains shown, Fab format) VH: QVQLVESGGGLVQPGGSLRLSCAASGFTFSSYYMNWVRQAPGKGLEWVSAISTNGWQTYYADSVKGRFTISRDNSKNTLYLQMNSLRAEDTAVYYCARDLPLVYTGFAYWGQGTLVTVSS VL: DIELTQPPSVSVAPGQTARISCSGDNLRHYYVYWYQQKPGQAPVLVIYGDSKRPSGIPERFSGSNSGNTATLTISGTQAEDEADYYCQTYTGGASLVFGGGTKLTVL",22.7 nM,3.96 nM,0.0593 nM
"MOR06197 Fab (Fab, V domains shown, Fab format) VH: QVQLVESGGGLVQPGGSLRLSCAASGFTFSSYYMNWVRQAPGKGLEWVSAISMDGVYKYYADSVKGRFTISRDNSKNTLYLQMNSLRAEDTAVYYCARDLPLVYTGFAYWGQGTLVTVSS VL: DIELTQPPSVSVAPGQTARISCSGDNLRHYYVYWYQQKPGQAPVLVIYGDSKRPSGIPERFSGSNSGNTATLTISGTQAEDEADYYCQTYTGGASLVFGGGTKLTVL",6.92 nM,4.81 nM,0.0127 nM
"MOR06195 Fab (Fab, V domains shown, Fab format) VH: QVQLVESGGGLVQPGGSLRLSCAASGFTFSSYYMNWVRQAPGKGLEWVSAISGNGGHTYYADSVKGRFTISRDNSKNTLYLQMNSLRAEDTAVYYCARDLPLVYTGFAYWGQGTLVTVSS VL: DIELTQPPSVSVAPGQTARISCSGDNLRHYYVYWYQQKPGQAPVLVIYGDSKRPSGIPERFSGSNSGNTATLTISGTQAEDEADYYCQTYTGGASLVFGGGTKLTVL",5.6 nM,4.52 nM,0.0557 nM
"MOR06190 Fab (Fab, V domains shown, Fab format) VH: QVQLVESGGGLVQPGGSLRLSCAASGFTFSSYYMNWVRQAPGKGLEWVSYINPNGMMTNYADSVKGRFTISRDNSKNTLYLQMNSLRAEDTAVYYCARDLPLVYTGFAYWGQGTLVTVSS VL: DIELTQPPSVSVAPGQTARISCSGDNLRHYYVYWYQQKPGQAPVLVIYGDSKRPSGIPERFSGSNSGNTATLTISGTQAEDEADYYCQTYTGGASLVFGGGTKLTVL",11.7 nM,15.7 nM,0.0488 nM
"MOR06183 Fab (Fab, V domains shown, Fab format) VH: QVQLVESGGGLVQPGGSLRLSCAASGFTFSSYYMNWVRQAPGKGLEWVSGINMESTRIYYADSVKGRFTISRDNSKNTLYLQMNSLRAEDTAVYYCARDLPLVYTGFAYWGQGTLVTVSS VL: DIELTQPPSVSVAPGQTARISCSGDNLRHYYVYWYQQKPGQAPVLVIYGDSKRPSGIPERFSGSNSGNTATLTISGTQAEDEADYYCQTYTGGASLVFGGGTKLTVL",28.1 nM,13.5 nM,0.026 nM
"MOR06184 Fab (Fab, V domains shown, Fab format) VH: QVQLVESGGGLVQPGGSLRLSCAASGFTFSSYYMNWVRQAPGKGLEWVSAISHDGNVKYYADSVKGRFTISRDNSKNTLYLQMNSLRAEDTAVYYCARDLPLVYTGFAYWGQGTLVTVSS VL: DIELTQPPSVSVAPGQTARISCSGDNLRHYYVYWYQQKPGQAPVLVIYGDSKRPSGIPERFSGSNSGNTATLTISGTQAEDEADYYCQTYTGGASLVFGGGTKLTVL",4.01 nM,9.68 nM,0.0662 nM
"MOR06186 Fab (Fab, V domains shown, Fab format) VH: QVQLVESGGGLVQPGGSLRLSCAASGFTFSSYYMNWVRQAPGKGLEWVSAINLSGSAKYYADSVKGRFTISRDNSKNTLYLQMNSLRAEDTAVYYCARDLPLVYTGFAYWGQGTLVTVSS VL: DIELTQPPSVSVAPGQTARISCSGDNLRHYYVYWYQQKPGQAPVLVIYGDSKRPSGIPERFSGSNSGNTATLTISGTQAEDEADYYCQTYTGGASLVFGGGTKLTVL",6.47 nM,4.62 nM,0.00509 nM
"MOR06189 Fab (Fab, V domains shown, Fab format) VH: QVQLVESGGGLVQPGGSLRLSCAASGFTFSSYYMNWVRQAPGKGLEWVSAINMIGNVTNYADSVKGRFTISRDNSKNTLYLQMNSLRAEDTAVYYCARDLPLVYTGFAYWGQGTLVTVSS VL: DIELTQPPSVSVAPGQTARISCSGDNLRHYYVYWYQQKPGQAPVLVIYGDSKRPSGIPERFSGSNSGNTATLTISGTQAEDEADYYCQTYTGGASLVFGGGTKLTVL",9.41 nM,4.95 nM,0.0247 nM
"MOR06187 Fab (Fab, V domains shown, Fab format) VH: QVQLVESGGGLVQPGGSLRLSCAASGFTFSSYYMNWVRQAPGKGLEWVSAISSNGDITYYADSVKGRFTISRDNSKNTLYLQMNSLRAEDTAVYYCARDLPLVYTGFAYWGQGTLVTVSS VL: DIELTQPPSVSVAPGQTARISCSGDNLRHYYVYWYQQKPGQAPVLVIYGDSKRPSGIPERFSGSNSGNTATLTISGTQAEDEADYYCQTYTGGASLVFGGGTKLTVL",16.9 nM,12.5 nM,0.0454 nM
"MOR06185 Fab (Fab, V domains shown, Fab format) VH: QVQLVESGGGLVQPGGSLRLSCAASGFTFSSYYMNWVRQAPGKGLEWVSAISMNGDYISYADSVKGRFTISRDNSKNTLYLQMNSLRAEDTAVYYCARDLPLVYTGFAYWGQGTLVTVSS VL: DIELTQPPSVSVAPGQTARISCSGDNLRHYYVYWYQQKPGQAPVLVIYGDSKRPSGIPERFSGSNSGNTATLTISGTQAEDEADYYCQTYTGGASLVFGGGTKLTVL",7.3 nM,4.39 nM,0.0137 nM
